One block for each binder: values may come before it.
Tests used:
Assay in all cases: alanine scan, high-throughput flow cytometry
[1] = target: T1, GRP78 alanine scan variant E329A (human, UniProt P11021 19-654)
T1 construct: Member of the GRP78 alanine scan library
Method: (§1) To characterize the binding properties of the antibodies described in Example 1 for GRP78, epitope mapping analysis was carried out by alanine scan mutagenesis. An alanine scan library of GRP78 was constructed. Each anti-GRP78 antibody was then screened for binding to each individual GRP78 variant, allowing identification of the target protein residues involved in antibody binding.
(§2) Binding of each test antibody to each GRP78 variant in the alanine scanning library was determined by high-throughput flow cytometry under high stringency conditions (e.g., increased pH, increased salinity, increased temperature and/or increased wash time). Also included in the experiment was a commercially-available monoclonal antibody, 1H11-1H7, which was verified to bind to WT GFR78 on cells and thus determined to be a suitable positive control under these conditions (Thermo Fisher Scientific, Waltham, MA). Antibody binding to each of the GRP78 variant as measured by the fluorescence signal (raw fluorescence data minus the background), was normalized to its binding to the wildtype (WT) GRP78. For each GRP78 variant, such normalized binding to the test antibodies was plotted relative to that to the control antibody.

[2] = target: T2, GRP78 alanine scan variant R261A (human, UniProt P11021 19-654)
T2 construct: Member of the GRP78 alanine scan library
T2 sequence (P11021 19-654 R261A limits assumed): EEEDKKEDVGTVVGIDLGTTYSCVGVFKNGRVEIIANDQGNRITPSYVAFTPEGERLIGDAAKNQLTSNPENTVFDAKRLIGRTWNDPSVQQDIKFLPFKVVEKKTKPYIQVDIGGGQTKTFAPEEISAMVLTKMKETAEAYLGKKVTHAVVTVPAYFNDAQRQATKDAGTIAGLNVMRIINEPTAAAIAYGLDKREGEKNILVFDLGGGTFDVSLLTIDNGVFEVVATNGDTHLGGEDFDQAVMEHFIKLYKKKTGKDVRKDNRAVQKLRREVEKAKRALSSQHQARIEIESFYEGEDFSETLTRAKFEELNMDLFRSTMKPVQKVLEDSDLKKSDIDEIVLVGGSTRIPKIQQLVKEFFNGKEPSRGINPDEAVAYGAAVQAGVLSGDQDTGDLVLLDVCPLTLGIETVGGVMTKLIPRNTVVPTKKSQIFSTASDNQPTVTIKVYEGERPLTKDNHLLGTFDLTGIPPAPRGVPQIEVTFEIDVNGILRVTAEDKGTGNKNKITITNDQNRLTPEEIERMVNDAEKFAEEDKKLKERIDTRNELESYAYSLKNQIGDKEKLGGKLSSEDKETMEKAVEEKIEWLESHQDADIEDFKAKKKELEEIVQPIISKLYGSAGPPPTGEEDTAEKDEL
Method: as §1, §2

[3] = target: T3, GRP78 alanine scan variant H265A (human, UniProt P11021 19-654)
T3 construct: Member of the GRP78 alanine scan library
T3 sequence (P11021 19-654 H265A limits assumed): as the sequence (P11021 19-654 R261A limits assumed) above, with A243R, H247A counted along it
Method: as §1, §2

[4] = target: T4, GRP78 alanine scan variant R279A (human, UniProt P11021 19-654)
T4 construct: Member of the GRP78 alanine scan library
T4 sequence (P11021 19-654 R279A limits assumed): as the sequence (P11021 19-654 R261A limits assumed) above, with A243R, R261A counted along it
Method: as §1, §2

T1 sequence (P11021 19-654 E329A limits assumed): as the sequence (P11021 19-654 R261A limits assumed) above, with A243R, E311A counted along it

- binding normalized to wildtype (WT) GRP78 [1]: < 20%
- binding normalized to wildtype (WT) GRP78 [2]: < 20%
- binding normalized to wildtype (WT) GRP78 [3]: < 20%
B1: anti-GRP78 antibody clone B4 (antibody, IgG1, V domains shown)
VH: QVRLQESGPGLVKPSQTLSLTCTVSGGSISSGGYYWSWIRQHPGKGLEWIGYIYYSGSTYYNPSLESRVTISVDTSKNQFSLKLSSVTAADTAVYYCARYSSIDAFEIWGQGTMVTVSS
VL: SYVLTQPPSVSVAPGKTATITCGGDDIGSKSVHWYQQKPGQAPVLVVYDDGDRPSGIPERFSGSNSGNTATLAISRVEAGDEADYYCQVWDSSSDQYVFGSGTKLTVL
notes: Fully human mAb formatted as full-length IgG1; also called B4 mAb

- binding normalized to wildtype (WT) GRP78 [2]: < 20%
- binding normalized to wildtype (WT) GRP78 [4]: < 20%
B2: anti-GRP78 antibody clone F6 (antibody, IgG1, V domains shown)
VH: QVQLQQSGPGLVKPPQTLSLTCAISGDSVSSNSAAWNWIRQSPSRGLEWLGRTYYRSKWYNDYAVSVKSRITINPDTSKNQFSLQLNSVTPEDTAVYYCARDPYYYDSSGYYYFDAFDIWGQGTMVTVSS
VL: SYELTQPHSVSVAPGQTARITCGGDNIGSKSVHWYQQRPGQAPVLVVYDDSDRPSGIPERFSGSNSENTATLTISGVEAGDEADYYCQVWDSTSHHVVFGGGTKLTVL
notes: Fully human mAb formatted as full-length IgG1; also called F6 mAb; Anti-GRP78 (F6)

From US20240010714A1 (MBRACE THERAPEUTICS, published 2024)
